Data on four molecules can be found in patent publication US20240124607A1 (Merck Sharp & Dohme, published 2024).

Where a chain is given by its changes, count along the chain named.

For test [1], the target named is T1, CEACAM5 Nterm IgV-His (human, UniProt P06731 35-144).
T1 construct: also called N-term domain of hCEACAM5
T1 sequence: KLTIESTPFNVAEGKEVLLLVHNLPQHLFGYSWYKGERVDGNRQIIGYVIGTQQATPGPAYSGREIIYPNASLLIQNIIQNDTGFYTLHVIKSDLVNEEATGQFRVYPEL
The test can be described thus: SPR, hFc capt, 37C. As for the experimental part:
(§1) The various hCEACAM5 protein domains were titrated over the captured antibody at 50 μL/min for 180 sec of association and 300 sec of dissociation. The assay was run at 37° C. in HBS-EP+ running buffer, pH 7.4. The surface of the CM5 chip was regenerated using 3M MgCl₂.

The target in test [2] is T2, CEACAM5 N-A1-B1-His (human, UniProt P06731 35-322, limits assumed).
T2 sequence: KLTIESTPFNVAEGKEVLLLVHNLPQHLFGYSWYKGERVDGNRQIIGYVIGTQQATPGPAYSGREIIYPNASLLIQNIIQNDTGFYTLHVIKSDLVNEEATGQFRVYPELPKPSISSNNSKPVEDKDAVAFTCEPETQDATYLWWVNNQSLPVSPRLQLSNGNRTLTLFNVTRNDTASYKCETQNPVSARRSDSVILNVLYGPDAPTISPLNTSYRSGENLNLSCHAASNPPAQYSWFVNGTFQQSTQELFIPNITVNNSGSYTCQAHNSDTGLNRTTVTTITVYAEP
The test can be described thus: SPR, hFc capt, 37C. As for the experimental part:
as §1
A general note: In SPR one partner is held on a chip, and binding of the other changes the refractive index at the surface.

In test [3] the target is T3, human CEACAM6 on Ba/F3 cells (human, UniProt P40199 35-320).
T3 construct: whole, on cells
T3 sequence (looked up): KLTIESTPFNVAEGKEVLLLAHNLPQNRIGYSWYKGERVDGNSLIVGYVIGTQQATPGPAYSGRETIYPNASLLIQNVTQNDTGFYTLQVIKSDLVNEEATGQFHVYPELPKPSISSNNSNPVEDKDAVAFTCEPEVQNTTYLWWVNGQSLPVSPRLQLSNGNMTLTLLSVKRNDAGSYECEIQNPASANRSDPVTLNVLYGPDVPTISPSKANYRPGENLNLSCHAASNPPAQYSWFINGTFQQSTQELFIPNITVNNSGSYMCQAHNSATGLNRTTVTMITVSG
The test can be described thus: flow cytometry on Ba/F3 cells expressing human CEACAM6, fold over background (FOB), 5-fold dilutions from 1600 nM. How it is done:
To examine the binding specificity of the TriNKETs to CEACAM5 compared to other CEACAM family members, Ba/F3 cells were engineered to express one of human CEACAM1, CEACAM6, CEACAM8, or cynomolgus CEACAM5. CEACAM5 TriNKETs were evaluated by flow cytometry starting at 1600 nM followed by 7 5-fold dilutions.
Background: Flow cytometry measures light scatter and fluorescence of single cells or particles in a stream.

The target in test [4] is T4, human CEACAM5 on cells (human, UniProt P06731 35-685).
T4 construct: tumour cell lines with endogenous CEACAM5, or B16F10 engineered to express hCEACAM5; also called CEACAM5 on MKN-45, HPAF-II, SK-CO-1, LoVo, BxPC-3, Kato-III, LS-174T, ZR-75-30; hCEACAM5-B16F10
T4 sequence: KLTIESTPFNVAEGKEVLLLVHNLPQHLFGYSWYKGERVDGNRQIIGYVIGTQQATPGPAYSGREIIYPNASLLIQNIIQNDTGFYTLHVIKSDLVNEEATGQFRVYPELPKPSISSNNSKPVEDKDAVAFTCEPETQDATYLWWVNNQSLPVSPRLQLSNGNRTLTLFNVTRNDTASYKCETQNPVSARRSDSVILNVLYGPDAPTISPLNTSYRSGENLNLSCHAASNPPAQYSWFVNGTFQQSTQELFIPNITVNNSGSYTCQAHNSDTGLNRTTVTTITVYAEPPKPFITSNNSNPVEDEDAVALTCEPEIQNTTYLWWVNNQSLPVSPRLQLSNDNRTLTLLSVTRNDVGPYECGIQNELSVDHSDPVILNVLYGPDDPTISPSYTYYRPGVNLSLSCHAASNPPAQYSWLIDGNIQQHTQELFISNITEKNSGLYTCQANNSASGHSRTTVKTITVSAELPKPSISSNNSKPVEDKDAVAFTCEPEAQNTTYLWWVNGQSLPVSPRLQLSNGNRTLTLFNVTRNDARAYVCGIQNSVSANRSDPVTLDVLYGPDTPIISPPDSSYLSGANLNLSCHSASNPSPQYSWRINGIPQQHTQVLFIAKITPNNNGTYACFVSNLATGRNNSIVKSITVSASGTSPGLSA
The test can be described thus: flow cytometry, HPAF-II cells. How it is done: MKN-45 and HPAF-II human cancer cell lines were diluted into FACS buffer and 100,000 cells of each cell type were seeded per well in duplicate into 96-well plates for FACS staining. The cells were washed with PBS, incubated in a 1:2000 dilution of live/dead dye in PBS for 15 minutes, and then washed with FACS buffer. AB0264, AB0411, AB0466, and AB0621 were diluted into FACS buffer, and 50 μl of each diluted TriNKET was added to the cells. After incubation on ice for 30-120 minutes, the cells were washed with FACS buffer. Anti-human IgG-Fc secondary antibody was diluted into FACS buffer, and 50 μl was added per well for detection of the bound TriNKETs. The cells were incubated for 30-60 minutes on ice and then washed with FACS buffer. 50 μl of fixation buffer was added to each well and the cells were incubated for 10 minutes at room temperature. The cells were washed with FACS buffer and resuspended in FACS buffer for analysis with ThermoFisher Attune NxT, BD FACS Celesta SN #H66034400085, or BD FACS Celesta SN #H66034400160.
Cells of interest were identified using FSC vs. SSC plot and an appropriately shaped gate was drawn around the cells. Within the gated cells, doublet cells were removed by viewing FSC-H vs. FSC-A plot. Within the single cell population, live cells were gated. Within the live gate, the median fluorescence intensity (MFI) of each sample and the secondary-only control was calculated. Fold-over-background (FOB) was calculated as the ratio of test article MFI over secondary-only background MFI. Data were fit to a four-parameter non-linear regression curve using GraphPad Prism 7.0.

Test [5] addresses T4, human CEACAM5 on cells. Put plainly: flow cytometry, LoVo cells.

B1: AB0466 F3' CEACAM5 TriNKET (bispecific antibody, human IgG1, kappa)
chain: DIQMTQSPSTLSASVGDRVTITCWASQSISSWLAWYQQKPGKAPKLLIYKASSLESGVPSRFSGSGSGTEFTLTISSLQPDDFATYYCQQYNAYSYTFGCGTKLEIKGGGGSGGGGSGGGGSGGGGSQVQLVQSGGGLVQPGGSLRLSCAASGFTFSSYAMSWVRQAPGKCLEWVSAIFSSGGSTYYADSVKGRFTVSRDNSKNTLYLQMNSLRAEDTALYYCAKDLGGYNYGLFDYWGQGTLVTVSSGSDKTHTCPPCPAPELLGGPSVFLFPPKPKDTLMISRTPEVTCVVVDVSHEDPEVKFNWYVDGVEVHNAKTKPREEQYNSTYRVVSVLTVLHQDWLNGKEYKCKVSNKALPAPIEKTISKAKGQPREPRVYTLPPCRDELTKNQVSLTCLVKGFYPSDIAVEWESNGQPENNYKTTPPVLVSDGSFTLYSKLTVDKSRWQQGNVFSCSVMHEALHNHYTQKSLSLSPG
heavy: EVQLVESGGGLVKPGGSLRLSCAASGFTFSSYSMNWVRQAPGKGLEWVSSISSSSSYIYYADSVKGRFTISRDNAKNSLYLQMNSLRAEDTAVYYCARGAPIGAAAGWFDPWGQGTLVTVSSASTKGPSVFPLAPSSKSTSGGTAALGCLVKDYFPEPVTVSWNSGALTSGVHTFPAVLQSSGLYSLSSVVTVPSSSLGTQTYICNVNHKPSNTKVDKKVEPKSCDKTHTCPPCPAPELLGGPSVFLFPPKPKDTLMISRTPEVTCVVVDVSHEDPEVKFNWYVDGVEVHNAKTKPREEQYNSTYRVVSVLTVLHQDWLNGKEYKCKVSNKALPAPIEKTISKAKGQPREPQVCTLPPSRDELTENQVSLTCLVKGFYPSDIAVEWESNGQPENNYKTTPPVLDSDGSFFLYSWLTVDKSRWQQGNVFSCSVMHEALHNHYTQKSLSLSPG
light: DIQMTQSPSSVSASVGDRVTITCRASQGISSWLAWYQQKPGKAPKLLIYAASSLQSGVPSRFSGSGSGTDFTLTISSLQPEDFATYYCQQGVSFPRTFGGGTKVEIKRTVAAPSVFIFPPSDEQLKSGTASVVCLLNNFYPREAKVQWKVDNALQSGNSQESVTEQDSKDSTYSLSSTLTLSKADYEKHKVYACEVTHQGLSSPVTKSFNRGEC
With B1, in test [1], binding was put at a Kd of 1.4 nM and the kon (usually the rate constant with which the complex forms) worked out at 1.1e+06 M⁻¹ s⁻¹. In test [2], the Kd (as a rule, a measure of binding affinity in units of concentration) is 5.5 nM and the kon was found to be 240000 M⁻¹ s⁻¹. Also, the binding result in test [3] is “no binding (tested: 1600 nM)”. Besides, in test [4], the EC50 (usually the concentration at which the effect is half-maximal) was found to be 7.61 nM and the “Max FOB” value was determined as 49 fold over background.

B2: AB0621 F3' CEACAM5 TriNKET (bispecific antibody, human IgG1, kappa)
chain: DIVMTQSPDSLAVSLGERATINCKSSHSLLYGNFQNNYLAWYQQKPGQPPKLLIYWASTRESGVPDRFSGSGSGTDFTLTISSLQAEDVAVYYCQQYYSYPYTFGCGTKLEIKGGGGSGGGGSGGGGSGGGGSQVQLVQSGAEVKKPGASVKVSCKASGYTFTAYTIHWVRQAPGQCLEWMGYINPSSGYTEYNQKFKDRTTLTADTSISTAYMELSRLRSDDTAVYYCTREGGLLWFDYWGQGTLVTVSSGSDKTHTCPPCPAPELLGGPSVFLFPPKPKDTLMISRTPEVTCVVVDVSHEDPEVKFNWYVDGVEVHNAKTKPREEQYNSTYRVVSVLTVLHQDWLNGKEYKCKVSNKALPAPIEKTISKAKGQPREPRVYTLPPCRDELTKNQVSLTCLVKGFYPSDIAVEWESNGQPENNYKTTPPVLVSDGSFTLYSKLTVDKSRWQQGNVFSCSVMHEALHNHYTQKSLSLSPG
heavy: B1 heavy
light: B1 light
As to B2, the binding result in test [1] is “no binding”. In test [2], this molecule displayed a Kd of 11 nM and a kon of 150000 M⁻¹ s⁻¹. Also, in test [3], the binding result was “no binding (tested: 1600 nM)”. For the same molecule, in test [4], a half-maximal response (EC50) required 18.1 nM and the “Max FOB” value was 24.9 fold over background.

B3: AB0411 F3' CEACAM5 TriNKET (bispecific antibody, human IgG1, kappa)
chain: DIQLTQSPATLSVSPGERATLSCRASQSVSSSYLAWYQQKPGQAPRLLIYGASSRATGIPDRFSGSGSGTDFTLTISRLEPEDFAVYYCQQYNNWPLTFGCGTKVEIKGGGGSGGGGSGGGGSGGGGSQVQLVQSGGGLVQPGGSLRLSCAASGFTFTSYAMSWVRQAPGKCLEWVSAISGTGDSTFYADSVKGRFTFSRDNSKNTLYLQMNSLRAEDTAVYYCAKDLGWLQYGLFDYWGQGTLVTVSSGSDKTHTCPPCPAPELLGGPSVFLFPPKPKDTLMISRTPEVTCVVVDVSHEDPEVKFNWYVDGVEVHNAKTKPREEQYNSTYRVVSVLTVLHQDWLNGKEYKCKVSNKALPAPIEKTISKAKGQPREPRVYTLPPCRDELTKNQVSLTCLVKGFYPSDIAVEWESNGQPENNYKTTPPVLVSDGSFTLYSKLTVDKSRWQQGNVFSCSVMHEALHNHYTQKSLSLSPG
heavy: B1 heavy
light: B1 light
Regarding B3, in test [5], a half-maximal effect (EC50) was put at 3.25 nM and the “Max FOB” value was 19 fold over background. In test [1], this molecule gave a Kd of 0.31 nM and an association rate constant (kon) of 1.4e+06 M⁻¹ s⁻¹. In test [2], this molecule yielded a Kd of 1.2 nM and a kon of 360000 M⁻¹ s⁻¹. Moreover, in test [4], a half-maximal effect (EC50) was put at 8.36 nM and the “Max FOB” value was 54.9 fold over background.

B4: AB0264 F3' CEACAM5 TriNKET (bispecific antibody, human IgG1, kappa)
chain: B2 chain with S210P
heavy: B1 heavy
light: B1 light
B4: in test [5], the EC50 worked out at 22.1 nM and the “Max FOB” value came out at 14 fold over background. For the same molecule, the binding result in test [3] is “no binding (tested: 1600 nM)”. Also, in test [4], the EC50 worked out at 20.3 nM and the “Max FOB” value is 27.9 fold over background.
